The results in this text go back to PMC4117426, “SlmA Antagonism of FtsZ Assembly Employs a Two-pronged Mechanism like MinCD” (PLoS Genetics, 2014).

T1: 6×His-FtsZ-K190V (E. coli, UniProt P0A9A6 1-383, K190V)
T1 construct: FtsZ, E. coli, His-tagged, with K190V; the construct is not described in the methods; Probably a derivative of pSD119 (N-terminal His6, full length)
T1 sequence (looked up): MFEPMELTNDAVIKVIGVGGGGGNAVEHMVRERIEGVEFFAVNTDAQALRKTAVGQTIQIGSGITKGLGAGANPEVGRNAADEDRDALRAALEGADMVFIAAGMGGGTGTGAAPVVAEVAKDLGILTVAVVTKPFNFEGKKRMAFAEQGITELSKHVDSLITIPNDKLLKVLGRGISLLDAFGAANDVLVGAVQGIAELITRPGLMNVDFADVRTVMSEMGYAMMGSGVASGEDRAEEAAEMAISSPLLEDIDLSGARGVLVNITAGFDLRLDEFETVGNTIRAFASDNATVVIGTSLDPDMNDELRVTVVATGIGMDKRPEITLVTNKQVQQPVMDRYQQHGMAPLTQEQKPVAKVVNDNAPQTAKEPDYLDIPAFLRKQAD

T2: 6×His-FtsZ (E. coli, UniProt P0A9A6 1-383)
T2 construct: FtsZ of E. coli, full length (FtsZ-FL), with an N-terminal 6×His tag, from pSD119; By the primer His-FtsZ-SstI the chain begins M-HHHHHH and goes on with F2 of FtsZ (FEPMELT...); also called 6×His-tagged FtsZ-FL; source: E. coli JS238 with pSD119, arabinose induced, purified (Ni-NTA); not shown: His6, N-terminal, kept
T2 sequence (looked up): T1 sequence (looked up) with V190K

B1: ZipA_(185–328) (domain or fragment)
chain: not shown
notes: amplified from chromosomal DNA; also called C-terminal domain of ZipA; source: expressed from pSD198 (pQE80 derivative)
B2: FtsZ (natural protein, E. coli, UniProt P0A9A6 1-383, looked up)
chain: T1 sequence (looked up) with V190K
notes: FtsZ, E. coli, untagged, from pSEB160; also called FtsZ-WT; WT FtsZ
B3: 6×His-FtsZ (natural protein, E. coli, UniProt P0A9A6 1-383, looked up)
chain: T1 sequence (looked up) with V190K
notes: FtsZ, E. coli; 6×His-tagged ftsZ amplified from pSEB160 (pSD119); By the printed primer the six His codons follow the start codon and precede Phe2; also called 6×His-tagged FtsZ-FL; source: E. coli JS238 with pSD119, purified (Ni-NTA); not shown: His6, N-terminal, kept
B4: FtsZ-D86N (natural protein, E. coli, UniProt P0A9A6 1-383, looked up)
chain: T1 sequence (looked up) with D86N, V190K
notes: FtsZ, E. coli, untagged, with D86N; pSEB160 derivative
B5: FtsZ-K190V (natural protein, E. coli, UniProt P0A9A6 1-383, looked up)
chain: T1 sequence (looked up)
notes: FtsZ, E. coli, untagged, with K190V; pSEB160 derivative
B6: 6×His-SlmA (natural protein, E. coli, UniProt P0C093 1-198, looked up)
chain: MAEKQTAKRNRREEILQSLALMLESSDGSQRITTAKLAASVGVSEAALYRHFPSKTRMFDSLIEFIEDSLITRINLILKDEKDTTARLRLIVLLLLGFGERNPGLTRILTGHALMFEQDRLQGRINQLFERIEAQLRQVLREKRMREGEGYTTDETLLASQILAFCEGMLSRFVRSEFKYRPTDDFDARWPLIAAQLQ
notes: SlmA, E. coli; also called SlmA-WT; His tagged SlmA; source: E. coli JS238/pQE80-slmA, purified (Ni-NTA)
B7: untagged SlmA (natural protein, E. coli, UniProt P0C093 1-198, looked up)
chain: B6 chain
notes: SlmA, E. coli; Used with or without SBS DNA on 6×His-FtsZ tips; also called SlmA (untagged version); source: E. coli BL21 (λDE3)/pLysS with pSUMO-SlmA, purified (Ni-NTA; tag cleaved with Ulp1, flow-through collected)
B8: SlmA (untagged version) (natural protein, E. coli, UniProt P0C093 1-198, looked up)
chain: B6 chain
notes: SlmA of E. coli; The forward primer slmA-SUMO-F begins at the second codon (GCA, Ala2), so the cleaved protein probably lacks the first methionine; also called SlmA-WT; nucleoid occlusion factor SlmA; source: E. coli BL21 (λDE3)/pLysS with pSUMO-SlmA, purified (Ni-NTA; H-SUMO tag cleaved with Ulp1, tag and protease removed on Ni-NTA); not shown: His-SUMO (H-SUMO), N-terminal, cleaved
B9: 6×His-FtsZ360 (domain or fragment, E. coli, UniProt P0A9A6 1-360, looked up)
chain: MFEPMELTNDAVIKVIGVGGGGGNAVEHMVRERIEGVEFFAVNTDAQALRKTAVGQTIQIGSGITKGLGAGANPEVGRNAADEDRDALRAALEGADMVFIAAGMGGGTGTGAAPVVAEVAKDLGILTVAVVTKPFNFEGKKRMAFAEQGITELSKHVDSLITIPNDKLLKVLGRGISLLDAFGAANDVLKGAVQGIAELITRPGLMNVDFADVRTVMSEMGYAMMGSGVASGEDRAEEAAEMAISSPLLEDIDLSGARGVLVNITAGFDLRLDEFETVGNTIRAFASDNATVVIGTSLDPDMNDELRVTVVATGIGMDKRPEITLVTNKQVQQPVMDRYQQHGMAPLTQEQKPVAKVVND
notes: FtsZ, E. coli, truncated by two stop codons after codon 360; lacks the conserved C-terminal tail; source: E. coli JS238 with pSD119-Z360, purified (Ni-NTA); not shown: His6, N-terminal, kept

Data set [1] concerns the target B2. The data set is described as follows: BLI; competition: SlmA/SBS17-30mer on streptavidin tips; 4 µM FtsZ preincubated with various concentrations of ZipA185-328 (with GDP). To be noted: both partners purified. On the technique in general: Biolayer interferometry detects binding as a change in optical thickness at a sensor tip.
Data set [2] deals with the molecule itself. The data set is described as follows: negative-stain electron microscopy of polymers; FtsZ or variant 2 µM with 1 mM GTP in Pol buffer (50 mM HEPES-NaOH pH 8.0, 200 mM KCl, 10 mM MgCl2), room temperature 5 min, 1% uranyl acetate; self-assembly into filaments.
For data set [3], the target named is B5. The data set is described as follows: co-sedimentation; stable FtsZ polymers formed with GMPCPP (1 mM); proteins 5 µM, SBS17-30mer DNA 2 µM; Pol buffer (50 mM HEPES-NaOH pH 8.0, 200 mM KCl, 10 mM MgCl2); 80,000 rpm 15 min 25°C; supernatant and pellet by SDS-PAGE. The conditions noted are these: both partners purified.
Data set [4] concerns the target B4. The data set is described as follows: BLI; biotinylated SBS17-30mer (50 nM) on streptavidin tips, loaded with 4 µM SlmA or SlmA mutant; FtsZ or variants (4 µM, preincubated with 1 mM GDP) or peptides (up to 320 µM) in solution; 1× Pol buffer, room temperature. The conditions noted are these: both partners purified.
The target in data set [5] is T1, 6×His-FtsZ-K190V. The data set is described as follows: BLI; 6×His-FtsZ or variant (1 µM) immobilised on Ni-NTA tips; untagged SlmA preincubated with SBS17-30mer DNA in solution; 1× Pol buffer, room temperature; global fitting. The conditions noted are these: both partners purified.
Data set [6] deals with B3. The description is as above. To be noted: both partners purified.
Data set [7] addresses T2, 6×His-FtsZ. The experiment in a line: BLI; 6×His-FtsZ (loaded at 1 µM) immobilised on Ni-NTA biosensor; untagged SlmA without SBS DNA in solution; 1× Pol buffer (50 mM HEPES-NaOH pH 8.0, 200 mM KCl, 10 mM MgCl2), room temperature; global fit (GraphPad Prism 5). The conditions noted are these: both partners purified.
For data set [8], the target named is T2, 6×His-FtsZ. The data set is described as follows: BLI; 6×His-FtsZ (loaded at 1 µM) immobilised on Ni-NTA biosensor; untagged SlmA preincubated with SBS17-20mer DNA in solution; 1× Pol buffer (50 mM HEPES-NaOH pH 8.0, 200 mM KCl, 10 mM MgCl2), room temperature; global fit (GraphPad Prism 5). To be noted: both partners purified.
In data set [9] the target is T2, 6×His-FtsZ. The data set is described as follows: BLI; 6×His-FtsZ (loaded at 1 µM) immobilised on Ni-NTA biosensor; untagged SlmA preincubated with SBS-18mer DNA in solution; 1× Pol buffer (50 mM HEPES-NaOH pH 8.0, 200 mM KCl, 10 mM MgCl2), room temperature; global fit (GraphPad Prism 5). The conditions noted are these: both partners purified.
The target in data set [10] is T2, 6×His-FtsZ. The experiment in a line: BLI; 6×His-FtsZ (loaded at 1 µM) immobilised on Ni-NTA biosensor; untagged SlmA preincubated with SBS17-30mer DNA in solution; 1× Pol buffer (50 mM HEPES-NaOH pH 8.0, 200 mM KCl, 10 mM MgCl2), room temperature; global fit (GraphPad Prism 5). To be noted: both partners purified.
The target in data set [11] is T2, 6×His-FtsZ. The experiment in a line: BLI; 6×His-FtsZ (loaded at 1 µM) immobilised on Ni-NTA biosensor; untagged SlmA preincubated with SBS-14mer DNA in solution; 1× Pol buffer (50 mM HEPES-NaOH pH 8.0, 200 mM KCl, 10 mM MgCl2), room temperature; global fit (GraphPad Prism 5). The conditions noted are these: both partners purified.

Residue numbers refer to the chain shown, from its start. Names and notes keep the numbering of the source.

Turning to B1, the “percent decrease of the FtsZ binding signal on SlmA/SBS17-30mer at a 1:1 ratio of FtsZ to ZipA185-328” value in [1] is about 30%.

As for B2, the binding result in [2] is “binds”.

In the case of B3, the binding result in data set [2] is “binds”.

B4: in data set [2], the binding result is on record as “binds”.

As to B5, the binding result in data set [2] is “binds”.

As to B6, the binding result in data set [3] and in data set [4] was “binds” throughout.

As to B7, in data set [5], the binding result is “binds”. Further, the Kd (commonly a measure of binding affinity in units of concentration) in [6] was found to be 210 nM.

As to B8, the Kd turned out to be 21 µM in data set [7], 789 nM in data set [8], 309 nM in data set [9] and 206 nM in data set [11]. Also, the off-rate (koff) (usually a measure of how fast the partners let go of each other) in data set [7] worked out at 0.149 s⁻¹; in [8], 0.0143 s⁻¹; in data set [9], 0.0067 s⁻¹; in [10], 0.0155 s⁻¹; in data set [11], 0.0057 s⁻¹. The kon – broadly, a measure of how fast the partners come together – was 7100 M⁻¹ s⁻¹ in data set [7]; 18100 M⁻¹ s⁻¹ in [8]; 21600 M⁻¹ s⁻¹ in [9]; 74000 M⁻¹ s⁻¹ in data set [10]; 27500 M⁻¹ s⁻¹ in data set [11].

For B9, the binding result in data set [2] was “binds”.
